Tests used:
claudin 18.2 (CLDN18.2) [1] = target: T1, claudin 18.2 (CLDN18.2) (human); experiment: FACS, hybridoma supernatant on HEK293-CLDN18.2;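 further: flow cytometry of hybridoma supernatants taken 10 days after fusion, applied to HEK293 cells stably expressing CLDN18.2, with MFI standing for mean fluorescence intensity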
T1 construct: also called Claudin 18 isotype 2; HEK293-CLDN18.2
Excerpt: (§1) Ten days after fusion, hybridoma supernatants were screened by FACS against HEK293-CLDN18.2, HEK293-CLDN18.1 and HEK293.

claudin 18.2 (CLDN18.2) [2] = target: T1, claudin 18.2 (CLDN18.2); experiment: in-cell ELISA, hybridoma supernatant on HEK293-CLDN18.2 cells
Description: (§2) In-cell ELISAs were performed as follows: 5×10³ HEK293-CLDN18.2 cells were seeded per well in a poly-L-lysine-coated 96-well plate. The plates were then incubated at 37° C. with 5% CO₂ for 2 days. Following incubation, culture media was removed from each well, and the HEK293-CLDN18.2 cells were blocked with 200 μl blocking buffer (3% BSA/PBS (pH 7.4)) per well for 1 hour at room temperature. Each hybridoma supernatant was incubated with cells at room temperature for 1 hour. Cells were gently washed 3 times with 200 μl PBS (pH 7.4) containing 1 mM Ca²⁺ and 0.5 mM Mg²⁺. Next, cells were incubated with 100 μl of HRP-conjugated goat anti-human IgG (H+L) antibody for 1 hour at room temperature. Following the incubation, the cells were washed three times with 200 μl PBS (pH 7.4) containing 1 mM Ca²⁺ and 0.5 mM Mg²⁺. 100 μl of 1-Step™ Ultra TMB-ELISA Substrate was added to each well, and the reactions were stopped by addition of 50 μl of stop solution. OD₄₅₀ was measured using CLARIOStar microplate reader. The in-cell ELISAs were repeated for each clone using HEK293-CLDN18.1 cells.

claudin 18.1 (CLDN18.1) [3] = target: T2, claudin 18.1 (CLDN18.1) (human, UniProt P56856 1-261); experiment: in-cell ELISA, hybridoma supernatant on HEK293-CLDN18.1 cells
T2 construct: also called HEK293-CLDN18.1
Description: as §2

claudin 18.1 (CLDN18.1) [4] = target: T2, claudin 18.1 (CLDN18.1); experiment: FACS, hybridoma supernatant on HEK293-CLDN18.1
Excerpt: as §1

T2 sequence (P56856 whole entry): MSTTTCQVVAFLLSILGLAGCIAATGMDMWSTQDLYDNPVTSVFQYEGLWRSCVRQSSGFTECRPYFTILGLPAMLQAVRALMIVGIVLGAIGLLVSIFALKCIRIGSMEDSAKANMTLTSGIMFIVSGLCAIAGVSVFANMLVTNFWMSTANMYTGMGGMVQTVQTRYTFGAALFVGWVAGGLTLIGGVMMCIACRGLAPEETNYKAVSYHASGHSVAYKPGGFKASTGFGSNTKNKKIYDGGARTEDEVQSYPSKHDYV

| Binder | MFI (claudin 18.2 (CLDN18.2) [1]) | OD450/µg IgG (claudin 18.2 (CLDN18.2) [2]) [OD450/µg IgG] | OD450/µg IgG (claudin 18.1 (CLDN18.1) [3]) [OD450/µg IgG] | MFI (claudin 18.1 (CLDN18.1) [4]) |
| --- | --- | --- | --- | --- |
| hybridoma clone 5-J22-A (antibody, V domains shown) VH: EVQLVESGGGLVKPGGSRKLSCAASGFTFSDYGMHWVRQAPEKGLEWVAHISSGSNIIHYADTLKGRFTISRDNAKNTLFLQMTSLRSEDTAMYYCARFARGNTMDYWGQGTSVTVSS VL: DIVMTQSPSSLTVTAGEKVTMSCKSSQSLLNSGNQKNYLTWYQQKPGQPPKLLIYWASTRESGVPDRFTGSGSGTDFTLTISSVQAEDLTVYYCQNAYSFPLTFGAGTKLELK | 46100 | 15.4 | 2.16 | 6390 |
| hybridoma clone 7-A21-A (antibody, V domains shown) VH: EVQLVESGGGLVKPGGSRKLSCAASGFTFSDYGMYWVRQAPEKGLEWLAYISSGSNTIYYADTVKGRFTISRDNAKNTLFLQMTSLRSEDTAMYYCARIARGNAMDYWGQGTSVTVSS VL: DIVMTQSPSSLTVTAGEKVTMSCKSSQSLLNSGNQKNYLTWYQQKPGQPPKLLIYWASTRESGVPDRFTGSGSGTDFTLTISSVQAEDLAVYYCQNDYIYPLTFGAGTKLGLK | 47000 | 18.4 | 2.51 | 6450 |
| hybridoma clone 7-E20-A (antibody, V domains shown) VH: EVQLVESGGGLVKPGGSRKLSCAASGFTFSDYGMHWVRQAPEKGLEWVAYISSGSSTIHYVDTMKGRFTISRDNAKNTLFLQMTSLRSEDTAMYYCARFARGNTLDYWGQGTSVTVSS VL: DIVMTQSPSSLTVTAGEKVTMSCKSSQSLFNTGNQKNYLTWYQQKPGQPPKLLIYWASTRESGVPDRFTGSGSGTDFTLTISSVQAEDLTVYYCQNGYSYPLTFGAGTKLELK | 72600 | 20.4 | 2.23 | 7460 |
| hybridoma clone 5-K4-B (antibody, V domains shown, also called 5K41B) VH: EVQLQQSGPELVKPGASVKMSCKASGYTFISYLIHWVKQKPGQGLEWIGYINPYNDGTKYNEKFKGKATLTSDKSSSTASMEFSSLTSEDSAVYYCTRGDFWGQGTTLTVSS VL: DIVMTQSPSSLTVTAGEKVTMSCKSSQSLLNSGNQKNYLTWYQQKPGQPPKLLIYWASIRASGVPDRFTGSGSGTDFTLTISSVQAEDLALYYCLNDYSFPLTFGAGTKLELK | 70800 | 88.2 | 139 | 126000 |
| hybridoma clone 2-F13-A (antibody, V domains shown) VH: EVQLQQSGPELVKPGASVKMSCKASGYTFTNYVMHWVKQKPGQGLEWIGYINPFDDGTKYNEKFKGKATLTSDKSSSTAYMELSSLTSEDSAVYYCTRGDYWGQGTTLTVSS VL: DIVMTQSPSSLTVTAGEKVTMTCKSSQSLLNSGNQKNYLTWYQQKPGQPPKLLIYWASTRDSGVPDRFRGSGSGTDFTLTISSVQAEDLAVYYCLNDYSFPLTFGAGTKLELK | 138000 | 6.49 | 13.3 | 232000 |

Next, values leading:

| MFI (claudin 18.2 (CLDN18.2) [1]) | OD450/µg IgG (claudin 18.2 (CLDN18.2) [2]) [OD450/µg IgG] | OD450/µg IgG (claudin 18.1 (CLDN18.1) [3]) [OD450/µg IgG] | MFI (claudin 18.1 (CLDN18.1) [4]) | Binder |
| --- | --- | --- | --- | --- |
| 52400 | 28.3 | 3.82 | 9700 | hybridoma clone 9-C6-A (antibody, V domains shown) VH: EVQLVESGGGLVKPGGSRKLSCAASGFTFSDYGMHWVRQAPEKGLEWVAYISSGSSTIYYADTMKGRFTISRDNAKNTLFLQMTSLRSEDTAMYYCARFVRGNSMDYWGQGTSVTVSS VL: DIVMTQSPSSLTVTAGEKVTLSCKSSQSLLNSGNQKNYLTWYQQKPRQPPKLLIYWASTRESGVPDRFTGSGSGTDFTLTISNVQAEDLTVYYCQNAYSYPLTFGAGTKLELK |
| 48900 | 12.9 | 2.11 | 7910 | hybridoma clone 10-K12-A (antibody, V domains shown) VH: EVQLVESGGGLVKPGGSRKLSCAASGFTFSDYGMFWVRQAPEKGLEWVGYISSGSSNIYYADTVKGRFTISRDNAKNTLFLQMTSLRSEDTAMYYCARIARGNAMDYWGQGTSVTVSS VL: DIVMTQSPSSLTVTAGEKVTMSCKSSQSLLNSGNQKNYLTWYQQKPGQPPKLLIYWASTRESGVPDRFTGSGSGTDFTLTISSVQAEDLAIYYCQNDYFYPLTFGAGTKLELK |
| 54100 | 25.9 | 2.18 | 7630 | hybridoma clone 9-B11-A (antibody, V domains shown) VH: EVQLVESGGGLVKPGGSRKLSCAASGFTFSDYGMHWVRQAPEKGLEWVAYISSGSSPIYYADTVKGRFTISRDNAKNTLFLQMTSLRSEDTAMYYCARFARGNAMDYWGQGTSVTVSS VL: DIVMTQSPSSLTVTAGEKVTMSCKSSQSLLNSGNQKNYLTWYQQKPGQPPKLLIYWASTRDSGVPDRFTGSGSGTDFTLTISSVQAEDLAVYYCQNNYYYPLTFGAGTNLELK |
| 127000 | 9.52 |  |  | hybridoma clone 10-L9-A (antibody, V domains shown) VH: EVQLVESGGGLVKPGGSRKLSCAASGFTFSDYGMHWVRQAPEKGLEWIAYINSGSSTIYYADTVKGRFTISRDNAKNTLFLQMTSLRSEDTAMFYCARFARGNVLDYWGQGTSVTVSS VL: DIVMTQSPSSLTVTAGEKVTMSCRSSQSLLNSGNQRNYLTWYQQKPGHPPKLLIYWASTRESGVPDRFTGSGSGTDFTLTISGVQAEDLAVYYCQNGYSYPLTFGAGTKLEVK |

— patent publication US20210009686A1 (BEIJING XUANYI PHARMASCIENCES, published 2021)
